In IntAct's records for PubMed 19513235:

B1: Mitogen-activated protein kinase kinase 9 (Arabidopsis thaliana (Mouse-ear cress)), Q9FX43 (parent)
chain: MALVRERRQLNLRLPLPPISDRRFSTSSSSATTTTVAGCNGISACDLEKLNVLGCGNGGIVYKVRHKTTSEIYALKTVNGDMDPIFTRQLMREMEILRRTDSPYVVKCHGIFEKPVVGEVSILMEYMDGGTLESLRGGVTEQKLAGFAKQILKGLSYLHALKIVHRDIKPANLLLNSKNEVKIADFGVSKILVRSLDSCNSYVGTCAYMSPERFDSESSGGSSDIYAGDIWSFGLMMLELLVGHFPLLPPGQRPDWATLMCAVCFGEPPRAPEGCSEEFRSFVECCLRKDSSKRWTAPQLLAHPFLREDL
B2: Mitogen-activated protein kinase kinase 9 (Arabidopsis thaliana (Mouse-ear cress)), Q9FX43 (parent)
chain: B1 chain
partner: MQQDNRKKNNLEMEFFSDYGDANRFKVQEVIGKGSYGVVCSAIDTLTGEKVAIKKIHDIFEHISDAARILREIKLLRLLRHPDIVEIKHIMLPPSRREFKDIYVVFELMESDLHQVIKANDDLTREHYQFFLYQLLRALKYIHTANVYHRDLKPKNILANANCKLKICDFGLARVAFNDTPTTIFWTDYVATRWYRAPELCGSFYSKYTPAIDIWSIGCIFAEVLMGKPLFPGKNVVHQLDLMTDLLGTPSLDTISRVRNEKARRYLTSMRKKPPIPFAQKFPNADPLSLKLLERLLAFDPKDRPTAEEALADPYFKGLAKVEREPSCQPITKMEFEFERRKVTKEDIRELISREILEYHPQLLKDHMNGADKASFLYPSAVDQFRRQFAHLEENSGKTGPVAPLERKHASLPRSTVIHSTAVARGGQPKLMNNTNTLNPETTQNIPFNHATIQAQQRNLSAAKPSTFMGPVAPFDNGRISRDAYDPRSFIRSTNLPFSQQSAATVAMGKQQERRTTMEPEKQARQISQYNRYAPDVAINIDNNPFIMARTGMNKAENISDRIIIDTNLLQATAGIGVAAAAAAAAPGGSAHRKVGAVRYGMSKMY

Variants of: B1
Details: with mpk6_arath MPK6, Q39026
Sequence of mpk6_arath MPK6, Q39026 (Q39026 whole entry): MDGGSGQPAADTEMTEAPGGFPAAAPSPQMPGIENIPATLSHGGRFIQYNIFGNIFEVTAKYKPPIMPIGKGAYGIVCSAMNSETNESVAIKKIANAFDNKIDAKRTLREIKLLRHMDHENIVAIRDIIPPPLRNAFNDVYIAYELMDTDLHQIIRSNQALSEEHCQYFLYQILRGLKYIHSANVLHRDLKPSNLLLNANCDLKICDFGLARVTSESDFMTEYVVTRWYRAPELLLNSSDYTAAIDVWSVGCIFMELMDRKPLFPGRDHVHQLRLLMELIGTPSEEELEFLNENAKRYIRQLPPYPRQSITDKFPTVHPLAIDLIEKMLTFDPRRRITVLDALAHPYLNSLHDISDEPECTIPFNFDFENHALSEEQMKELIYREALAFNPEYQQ
For S201E, the “effect of a mutation on the interaction” value was “increasing interaction”.

Variants of: B1
Details: with mpk10_arath MPK10, Q9M1Z5
Sequence of mpk10_arath MPK10, Q9M1Z5 (Q9M1Z5 whole entry): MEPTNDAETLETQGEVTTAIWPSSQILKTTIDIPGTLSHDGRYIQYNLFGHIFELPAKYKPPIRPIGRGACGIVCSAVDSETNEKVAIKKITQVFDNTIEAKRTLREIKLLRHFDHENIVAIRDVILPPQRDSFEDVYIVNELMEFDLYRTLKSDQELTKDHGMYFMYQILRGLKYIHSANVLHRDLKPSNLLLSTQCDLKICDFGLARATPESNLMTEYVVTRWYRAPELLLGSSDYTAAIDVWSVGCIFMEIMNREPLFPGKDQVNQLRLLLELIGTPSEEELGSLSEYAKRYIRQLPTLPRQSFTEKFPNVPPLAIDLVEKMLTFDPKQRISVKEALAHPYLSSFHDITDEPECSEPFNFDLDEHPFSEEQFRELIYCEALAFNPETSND
With S201E the “effect of a mutation on the interaction” value was “increasing interaction”.

Variants of: B2
Details: with mpk20_arath MPK20, Q9SJG9
With S201E the “effect of a mutation on the interaction” value was “increasing interaction”.
S195E was tested, and the “effect of a mutation on the interaction” value was “increasing interaction”.
